# Laboratory results reported in patent US20210347873A1 (SHANGHAI PHARMAEXPLORER, published 2021).
# T1: human APRIL protein (human, UniProt O75888 105-250, limits assumed)
# T1 construct: Bought protein; also called recombinant APRIL protein
# T1 sequence (looked up): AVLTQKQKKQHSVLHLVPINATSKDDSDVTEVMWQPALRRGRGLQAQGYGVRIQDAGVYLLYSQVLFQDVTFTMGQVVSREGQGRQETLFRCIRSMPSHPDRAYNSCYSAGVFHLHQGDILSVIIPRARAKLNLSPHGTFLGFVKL
# Legend:
# human APRIL protein [1] = target: T1, human APRIL protein; assay: ELISA, coated APRIL
# Protocol: To test whether the BLyS antibody cross-reacted with human APRIL protein, APRIL protein (purchased from R & D Systems) was first diluted to a final concentration of 1.0 μg/mL with PBS, and then 50 μL of which per well was aliquoted into a 96-well ELISA plate, and the plate was subsequently sealed with plastic film and incubated at 4° C. overnight. On the next day the plate was rinsed four times with the plate washing buffer [PBS buffer containing 0.0500 (v/v) Tween20] and a blocking solution [PBS buffer containing 0.05 (v/v) Tween20 and 1 (w/w) BSA] was added, then the protein was blocked at 37° C. for 2 hours. The blocking solution was removed and 100 μL per well of the lead antibodies prepared in Embodiment 1 and 2 were added in. After incubation for 1 hour at 37° C., the plate was rinsed four times with the plate washing buffer [PBS buffer containing 0.05 (v/v) Tween20]. HRP-labeled (horseradish peroxidase) secondary antibody (purchased from Sigma) was added in and incubated at 37° C. for 1 hour. The plate was then rinsed four times with the plate washing buffer [PBS buffer containing 0.050 (v/v) Tween20]. […] A₄₅₀ₙₘ values were read via an ELISA plate reader (SpectraMax M5e purchased from Molecular Devices) and the results were shown in FIGS. 6A-6B and Table 11. […]
# human APRIL protein [2] = target: T1, human APRIL protein; assay: ELISA, coated APRIL; antibody 13.3 nM
# Outline: (§1)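 APRIL 1.0 μg/mL coated o/n 4 °C; block BSA/Tween-PBS 2 h 37 °C; BLyS Ab 1 h 37 °C; HRP 2° Ab 1 h 37 °C; TMB 5 min RT, 1.0 N HCl stop; OD450. Human IgG control.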
# human APRIL protein [3] = target: T1, human APRIL protein; assay: ELISA, coated APRIL; antibody 2.67 nM
# Outline: as §1
# human APRIL protein [4] = target: T1, human APRIL protein; assay: ELISA, coated APRIL; antibody 66.7 nM
# Outline: as §1
# human APRIL protein [5] = target: T1, human APRIL protein; assay: ELISA, coated APRIL; antibody 0.107 nM
# Outline: as §1
# human APRIL protein [6] = target: T1, human APRIL protein; assay: ELISA, coated APRIL; antibody 0.534 nM
# Outline: as §1
# human APRIL protein [7] = target: T1, human APRIL protein; assay: ELISA, coated APRIL; antibody 0.0213 nM
# Outline: as §1
# human APRIL protein [8] = target: T1, human APRIL protein; assay: ELISA, coated APRIL; antibody 0.00427 nM
# Outline: as §1
# human APRIL protein [9] = target: T1, human APRIL protein; assay: ELISA, coated APRIL; antibody 0 nM (blank)
# Outline: as §1
binder,measurement,setting,value
"67A2E1D10 (antibody, V domains shown, Mouse hybridoma antibody purified on Protein G) VH: EVQLQQSGAELVKPGASVKLSCTASGFNIKNYYMHWVKQRTEEGLEWIGRIDPEDGETKYAPKFQAKATITADTSSNTAYLQLSSLTSEDTAVYFCARKGYYGNYGAWFAYWGQGTLVTVSA VL: DIQMTQSPASLSVSVGETVTITCRASEDLYSNLAWYQQKQGKSPQLLVYAATFLADGVPSRFSGSGSGTQYSLKINSLQSEDFGNYYCQHFWGTPPTFGGGTKLEIK",binding result,human APRIL protein [1],no binding (tested: 66.7 nM)
same,OD450 nm,human APRIL protein [2],0.0898
same,OD450 nm,human APRIL protein [3],0.0673
same,OD450 nm,human APRIL protein [4],0.264
same,OD450 nm,human APRIL protein [5],0.0588
same,OD450 nm,human APRIL protein [6],0.058
same,OD450 nm,human APRIL protein [7],0.0563
same,OD450 nm,human APRIL protein [8],0.0553
same,OD450 nm,human APRIL protein [9],0.053
